Results reported in publication PMC12802937 (Nucleic Acids Research, 2026).

How the values were obtained:
Assay in all cases: SPR; Lge1-CT immobilised on a CM5 chip, Bre1-LR flown over; Biacore 8K, 25°C, 20 mM HEPES (pH 7.5), 200 mM sodium chloride, 0.02% Tween 20
Settings in all cases: both partners purified
Bre1-LR K379A = molecular target: T1, Bre1-LR K379A (budding yeast, UniProt Q07457 227-700, K379A)
T1 construct: source: E. coli BL21 Rosetta (DE3), purified (Ni-NTA, heparin, gel filtration)
T1 sequence (looked up): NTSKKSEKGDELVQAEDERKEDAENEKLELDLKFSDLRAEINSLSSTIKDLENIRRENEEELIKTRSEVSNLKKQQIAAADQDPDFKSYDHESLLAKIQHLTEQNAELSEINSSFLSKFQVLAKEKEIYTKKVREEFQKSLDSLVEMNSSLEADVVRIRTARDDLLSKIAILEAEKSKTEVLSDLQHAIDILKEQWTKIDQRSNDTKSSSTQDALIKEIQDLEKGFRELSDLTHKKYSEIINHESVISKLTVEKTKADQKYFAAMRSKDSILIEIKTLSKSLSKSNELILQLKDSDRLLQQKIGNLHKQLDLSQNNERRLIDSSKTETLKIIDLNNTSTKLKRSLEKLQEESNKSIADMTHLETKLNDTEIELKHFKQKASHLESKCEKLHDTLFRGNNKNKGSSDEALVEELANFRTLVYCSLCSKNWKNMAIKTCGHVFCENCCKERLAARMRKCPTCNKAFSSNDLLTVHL

Bre1-LR V382N = molecular target: T2, Bre1-LR V382N (budding yeast, UniProt Q07457 227-700, V382N)
T2 construct: source: E. coli BL21 Rosetta (DE3), purified (Ni-NTA, heparin, gel filtration)
T2 sequence (looked up): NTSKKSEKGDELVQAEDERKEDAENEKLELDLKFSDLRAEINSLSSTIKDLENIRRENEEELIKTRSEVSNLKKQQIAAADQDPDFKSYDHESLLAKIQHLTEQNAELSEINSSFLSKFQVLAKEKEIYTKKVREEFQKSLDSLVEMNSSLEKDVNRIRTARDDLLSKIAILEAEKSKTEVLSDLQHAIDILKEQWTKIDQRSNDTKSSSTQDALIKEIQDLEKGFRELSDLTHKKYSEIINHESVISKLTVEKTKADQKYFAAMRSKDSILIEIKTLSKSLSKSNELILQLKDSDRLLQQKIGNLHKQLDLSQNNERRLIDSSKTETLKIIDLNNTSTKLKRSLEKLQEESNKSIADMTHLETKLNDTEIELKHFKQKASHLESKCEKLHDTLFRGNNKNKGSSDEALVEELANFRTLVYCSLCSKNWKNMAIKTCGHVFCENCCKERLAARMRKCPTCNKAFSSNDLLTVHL

Bre1-LR A489N = molecular target: T3, Bre1-LR A489N (budding yeast, UniProt Q07457 227-700, A489N)
T3 construct: source: E. coli BL21 Rosetta (DE3), purified (Ni-NTA, heparin, gel filtration)
T3 sequence (looked up): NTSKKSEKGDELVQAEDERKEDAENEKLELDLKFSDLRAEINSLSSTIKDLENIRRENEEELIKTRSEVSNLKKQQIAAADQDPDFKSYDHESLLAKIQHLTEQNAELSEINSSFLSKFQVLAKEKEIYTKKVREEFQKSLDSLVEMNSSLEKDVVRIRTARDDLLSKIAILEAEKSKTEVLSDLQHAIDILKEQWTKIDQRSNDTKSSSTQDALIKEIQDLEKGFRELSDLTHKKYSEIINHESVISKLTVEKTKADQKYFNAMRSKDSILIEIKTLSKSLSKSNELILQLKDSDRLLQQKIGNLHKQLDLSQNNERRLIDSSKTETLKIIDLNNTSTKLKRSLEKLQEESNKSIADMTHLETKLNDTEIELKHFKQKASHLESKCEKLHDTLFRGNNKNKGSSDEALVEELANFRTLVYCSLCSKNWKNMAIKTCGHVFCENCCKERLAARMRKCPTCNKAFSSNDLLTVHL

Bre1-LR K352E = molecular target: T4, Bre1-LR K352E (budding yeast, UniProt Q07457 227-700, K352E)
T4 construct: source: E. coli BL21 Rosetta (DE3), purified (Ni-NTA, heparin, gel filtration)
T4 sequence (looked up): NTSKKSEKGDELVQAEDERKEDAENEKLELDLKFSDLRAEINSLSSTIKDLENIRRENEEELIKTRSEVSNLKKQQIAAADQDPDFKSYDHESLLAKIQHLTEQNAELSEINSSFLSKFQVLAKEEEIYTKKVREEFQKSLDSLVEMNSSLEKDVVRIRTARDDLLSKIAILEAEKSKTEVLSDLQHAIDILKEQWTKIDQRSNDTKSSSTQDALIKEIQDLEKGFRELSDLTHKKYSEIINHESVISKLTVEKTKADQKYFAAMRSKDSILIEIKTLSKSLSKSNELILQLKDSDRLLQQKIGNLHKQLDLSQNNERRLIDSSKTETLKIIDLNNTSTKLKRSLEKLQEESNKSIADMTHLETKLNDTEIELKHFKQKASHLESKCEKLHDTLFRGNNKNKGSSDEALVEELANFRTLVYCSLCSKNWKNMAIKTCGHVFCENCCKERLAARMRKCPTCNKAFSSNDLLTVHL

Kd (Bre1-LR K379A): 34 nM
Kd (Bre1-LR V382N): 63 nM
Kd (Bre1-LR A489N): 41.1 nM
Kd (Bre1-LR K352E): 76.6 nM
B1: Lge1-CT (Lge1 residues 261–332), intein-chitin binding domain (CBD) tag construct (domain or fragment, budding yeast, UniProt Q02796 261-332, looked up)
chain: KNVKKTNNTESECEKAREVFKESDSIDSALEELNLKINSNELELRLLNNQCDKHALNIQLTQEKLDSLLLMQ
notes: Lge1, budding yeast, residues 261-332; residues 268–331 resolved in the electron density; the intein-CBD tag is named on the protein in the pull-down; also called intein-CBD-fused Lge1-CT; intein-CBD-tagged Lge1-CT; source: E. coli BL21 Rosetta (DE3): cleared cell extract on chitin resin (pull-down); purified (chitin, heparin, gel filtration) for ITC and SPR; co-purified with Bre1-LR for the …
